The results in this text go back to US20240124572A1 (Bayer, published 2024).

The target of test [1] is human IL-11 (Invigate, e.g., lot #C121021-19) (human) (UniProt P20809). Nature of the test: cell-based or functional assay.
Test [2] concerns the target murine IL-11 (Invigate, e.g., lot #C210819-09) (mouse) (UniProt P47873). In words: cell-based or functional assay.
In test [3] the target is human IL-11 (Invigate, e.g., lot #C121021-19) (human) (UniProt P20809). In words: Tri-complex ELISA (hIL-11, mIL-11Ra-Fc, hgp130-Fc). On the technique in general: An ELISA detects its analyte on a solid surface through an enzyme-linked reagent.
In test [4] the target is murine IL-11 (Invigate, e.g., lot #C210819-09) (mouse) (UniProt P47873). In words: Tri-complex ELISA (mIL-11, mIL-11Ra-Fc, mgp130-Fc).
Test [5] has as its target human IL-11 (Invigate, e.g., lot #C121021-19) (human) (UniProt P20809). In words: Di-complex ELISA (hIL-11 coated, canine IL11RA-hFc).
Test [6] concerns the target murine IL-11 (Invigate, e.g., lot #C210819-09) (mouse) (UniProt P47873). Nature of the test: Di-complex ELISA (mIL-11 coated, canine IL11RA-hFc).
In test [7] the target is human IL-11 (Invigate, e.g., lot #C121021-19) (human) (UniProt P20809). Nature of the test: SPR, antibody captured, single IL-11 concentration 200 nM. In general terms: SPR reads the build-up and loss of mass on a sensor chip optically.
For test [8], the target named is murine IL-11 (Invigate, e.g., lot #C210819-09) (mouse) (UniProt P47873). Described as above.
The target of test [9] is cynomolgus IL-11 (cynomolgus) (UniProt P20808). In words: cell-based or functional assay.
Test [10] has as its target human IL-11 (human) (UniProt P20809). Nature of the test: cell-based or functional assay.
Test [11] concerns the target T1, murine IL-11 (Invigate, e.g., lot #C210819-09) (mouse, UniProt P47873 22-199).
T1 construct: Biotinylated and captured on streptavidin plates in the Di-complex ELISA; unmodified analyte in SPR; also called mIL11; mIL-11
T1 sequence: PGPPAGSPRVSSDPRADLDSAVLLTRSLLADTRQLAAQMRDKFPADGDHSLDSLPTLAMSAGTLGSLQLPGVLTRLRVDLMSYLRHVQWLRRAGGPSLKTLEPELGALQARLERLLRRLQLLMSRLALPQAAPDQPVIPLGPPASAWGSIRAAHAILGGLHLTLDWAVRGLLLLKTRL
In words: Tri-complex ELISA (mIL-11, mIL-11Ra-Fc, mgp130-Fc).

Test [12] has as its target human IL-11 (human) (UniProt P20809). In words: Di-complex ELISA, competitor canine IL11RA-hFc, IL-11 immobilised.
The target of the next test is T2, murine IL-11 (mouse, UniProt P47873 22-199).
T2 construct: bought from Invigate; also called mIL-11; mIL11
T2 sequence: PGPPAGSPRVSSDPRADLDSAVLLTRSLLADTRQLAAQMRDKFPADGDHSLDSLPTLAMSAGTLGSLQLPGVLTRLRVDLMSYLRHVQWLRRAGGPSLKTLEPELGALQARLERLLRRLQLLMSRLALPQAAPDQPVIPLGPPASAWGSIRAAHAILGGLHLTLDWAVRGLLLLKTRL
Nature of the test: SPR, antibody captured, IL-11 analyte. On the procedure: Antibodies were captured via anti-mouse Fc IgGs (“Mouse antibody capture kit, Order No. BR100383, Cytiva) covalently amine coupled to a Series S CMS sensor chip (Cytiva). The amine coupling was carried out according to the manufacturer's instructions using 1-ethyl-3-(3-dimethylaminopropyl) carbodiimide hydrochloride (EDC), N-hydroxysuccinimide ([…]) and ethanolamine HCl, pH 8.5 (“Amine Coupling Kit” BR-1000-50, Cytiva). Human IL-11 (Invigate, e.g., lot #C121021-19), and murine IL-11 (Invigate, e.g., lot #C210819-09) were used as analytes. […] Based on that experiment an IL-11 concentration range was chosen to optimally determine kinetics and affinity of anti-IL-11 antibodies in multicycle kinetics mode. The sensor surface was regenerated with glycine pH 1.7 after each antigen injection. Obtained sensorgrams were double referenced (subtraction of reference flow cell signal and buffer injection) and were fitted to a 1:1 Langmuir binding model to derive kinetic data using the Biacore T200 Evaluation software or the Biacore Insight software.
42 hits from the IL-11 and IL-2Ra screening analysis were selected, expressed by transient transfection of mammalian cells and purified as described in Example 15. Antibodies were then tested for human IL-11 and murine IL-11 binding by SPR as described in Example 16.

The term IC50 denotes the concentration needed to halve the response being measured. Higher therefore signals lower potency. For orientation: Kd means the equilibrium constant for the complex coming apart. Low values mean tighter binding, high ones weaker binding. Take “MA5-23711 (Thermo Fisher Scientific, clone 22616) (antibody)”: the Efficacy (%)*, RGA in test [1] was found to be 19.9%; in test [2], 47.6%. In addition, the Efficacy (%) was determined as 34.1% in test [3], 62.3% in test [4], 51.1% in test [5] and 70.5% in [6]. The IC50 amounted to 19 nM in test [3], 60 nM in [5] and 29 nM in test [6]. Besides, the results for the Kd in test [7] and in test [8] were 3.6 nM and 2 nM, respectively.

As for “MA5-30696 (Thermo Fisher Scientific, clone 12) (antibody)”, the Efficacy (%)*, RGA amounted to 4.9% in test [1] and 17.2% in [2]. For the same molecule, the Efficacy (%) stood at 4.7% in test [3], 4.3% in test [4], 8.1% in test [5] and 3.1% in test [6].

In [1], “TPP-14250 (R&D Systems, #MAB218) (antibody)” had an Efficacy (%), Stat3 reporter gene assay of 27.1% and an IC50 [M], Stat3 reporter gene assay of 2.4e-10 M. Also, in test [2], the Efficacy (%), Stat3 reporter gene assay is 69.1% and the IC50 [M], Stat3 reporter gene assay was found to be 1.4e-07 M. In [3], this molecule yielded an Efficacy (%) of 81.1% and an IC50 of 15 nM. In [4], this molecule showed an Efficacy (%) of 81.1% and an IC50 of 8 nM.

With “LS-C193526 (LS-bio, clone KT8) (antibody)”, the values for the Efficacy (%)*, RGA in test [1] and in [2] were 52.7% and 88.3%, respectively. Further, the IC50 [M], RGA was 5e-08 M in test [1] and 5.6e-09 M in [2]. In addition, the Efficacy (%) in test [3] came to 78.5%; in test [4] it was 90.3%; in test [5] it was 90.1%; in test [6], 96.2%. Besides, the IC50 in test [3] was determined as 10 nM; in test [4] it was 6.6 nM; in [5], 10 nM; in test [6] it was 6.5 nM. Besides, the Kd in [7] was found to be 6.3 nM; in test [8] it was 6.2 nM.

As for “MA5-30695 (Thermo Fisher Scientific, clone 9) (antibody)”, the Efficacy (%)*, RGA in [1] stood at 23.9%; in test [2] it was 15.6%. Further, the Efficacy (%) was found to be 0% in test [3], 1.5% in test [4], 0% in [5] and 0% in test [6].

Take “GTX34009 (Genetex, clone 6D9A1) (antibody)”: the Efficacy (%)*, RGA in test [1] came to 21.3%; in test [2], 0%. Besides, the Efficacy (%) in test [3] is 1.1%; in test [4], 0%; in test [5], 10.3%; in test [6], 11.7%.

With “GTX52814 (Genetex, clone 9T27) (antibody)”, the figures for the Efficacy (%)*, RGA in test [1] and in test [2] were 5.1% and 75.5%, respectively. The Efficacy (%) in test [3] is 36.9%; in test [4], 106%; in test [5], 74.9%; in test [6] it was 89.9%. For the same molecule, the IC50 was found to be 14 nM in [3], 17 nM in test [4], 1.9 nM in test [5] and 4.7 nM in test [6]. Further, the Kd stood at 3.3 nM in test [7] and 2 nM in test [8].

LS-C104441 (LS-bio) (antibody): the Efficacy (%)*, RGA is 42.6% in test [1] and 88% in test [2]. In [2], the IC50 [M], RGA came out at 3.9e-09 M. Moreover, the Efficacy (%) in [3] is 65.6%; in test [4], 98.4%; in [5], 71.5%; in [6] it was 91.2%. For the same molecule, the IC50 was 20 nM in test [3], 3.8 nM in [4], 5.3 nM in [5] and 3.5 nM in [6]. Besides, the Kd in test [7] was determined as 3.9 nM; in [8], 2.2 nM.

B1: TPP-18087 (antibody, mouse IgG1, V domains shown)
VH: EVQLLESGGGLVQPGGSLRLSCAASGFTFSHYDMNWLRQAPGKGLEWVGVISYDGSNKFYADFVKGRFTISRDNSKNTLYLQMNSLRAEDTAVYYCARTPGSHFDYWGQGTLVTVSS
VL: QSVLTQPPSASGTPGQRVTISCSGSSSNIGNNAVNWYQQLPGTAPKLLIYYDDLLPSGVPDRFSGSKSGTSASLAISGLRSEDEADYYCSAWDDSLNGVVFGGGTKLTVLG
notes: mIgG1, Lambda
For the molecule B1, the results for the Efficacy (%) (RGA) (in test [9]; with human IL-11 (human) [10]) were 47.7% and 47.8%, respectively. Moreover, the figures for the “Efficacy (%)” value (in test [11]; in the test with human IL-11 (human) [12]) were 25% and 0%, respectively.

B2: TPP-26333 (antibody, IgG1, V domains shown)
VH: EVQLLESGGGLVQPGGSLRLSCAASGFTFSSYGFHWVRQAPGKGLEWVSVISYDGSYKYYADSVKGRFTISRDNSKNTLYLQMNSLRAEDTAVYYCAAGVPDYWGQGTLVTVSS
VL: QSVLTQPPSASGTPGQRVTISCTGSSSNIGAGYDVHWYQQLPGTAPKLLIYSNNERPSGVPDRFSGSKSGTSASLAISGLRSEDEADYYCAAWDDSLNGPVFGGGTKLTVL
As to B2, in the test with murine IL-11, the binding result is “no binding”.
